Assays:
[1] = target: collagen (collagen-coated microtiter wells and culture plates; collagen matrices); experiment: cell-based or functional assay
[2] = target: collagen (collagen-coated microtiter wells and culture plates; collagen matrices); experiment: about 1 µg protein on collagen-coated microtiter plates, washes of rising stringency, immunodetection with DAB

Substance | transduction efficiency of NIH 3T3 cells overlaid upon the virus-bound collagen [1] | urea needed to release the collagen-bound protein [2]
chimeric ECB-CEE+ Moloney Murine Leukemia Virus gp70 envelope protein with collagen binding domain, on retroviral vector particles (from UniProt P03385 52-469) | 20 to 40% | –
purified, renatured SU-ECB-CEE+ chimeric envelope protein (His×6 tag, von Willebrand Factor derived collagen binding domain, mature SU region of MoMuLV env gp70, residues 34 to 474) (from UniProt P03385 52-474) | – | 3 M

— US20030118551A1
